Biological target: SerRS WT (Homo sapiens, UniProt P49591 1-514)
Test: EMSA; EMSA: 20 mM Tris-HCl pH 8.0, 60 mM KCl, 5 mM MgCl2, 0.1 mg/mL BSA, 10 ng/uL poly(dG-dC), 1 mM DTT, 30 min, room temperature; 0.08 pmol labeled DNA; 5% native PAGE
Conditions: protein: recombinant; tags: C-terminal His6; chain copies: 2; label: 5'-32P; annealed oligonucleotides

SerRS WT, sequence (P49591 whole entry): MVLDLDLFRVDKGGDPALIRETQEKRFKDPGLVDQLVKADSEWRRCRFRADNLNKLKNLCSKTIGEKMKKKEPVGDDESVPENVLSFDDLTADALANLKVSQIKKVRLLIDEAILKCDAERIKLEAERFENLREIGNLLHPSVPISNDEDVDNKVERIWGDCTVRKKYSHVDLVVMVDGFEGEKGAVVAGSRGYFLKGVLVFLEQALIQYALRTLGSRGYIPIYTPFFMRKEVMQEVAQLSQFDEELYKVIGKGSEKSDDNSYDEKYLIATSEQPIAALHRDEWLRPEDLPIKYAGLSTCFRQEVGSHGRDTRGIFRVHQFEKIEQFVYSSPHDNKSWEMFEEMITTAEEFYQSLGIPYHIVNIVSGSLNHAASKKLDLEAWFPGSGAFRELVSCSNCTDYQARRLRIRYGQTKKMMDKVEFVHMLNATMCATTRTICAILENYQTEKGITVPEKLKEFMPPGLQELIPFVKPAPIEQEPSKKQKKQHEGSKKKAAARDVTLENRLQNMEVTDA

B1: VEGFA promoter SerRS binding site 27 bp (dsDNA)
DNA 1: GGCGGGGCGGAGCCATGCGCCCCCCCC
DNA 2: GGGGGGGGCGCATGGCTCCGCCCCGCC
binding result: binds
